T1: Murine CXCR2 (Mus musculus, UniProt P35343)
T1 construct: expressed in transfected cells
T1 sequence (P35343 1-359): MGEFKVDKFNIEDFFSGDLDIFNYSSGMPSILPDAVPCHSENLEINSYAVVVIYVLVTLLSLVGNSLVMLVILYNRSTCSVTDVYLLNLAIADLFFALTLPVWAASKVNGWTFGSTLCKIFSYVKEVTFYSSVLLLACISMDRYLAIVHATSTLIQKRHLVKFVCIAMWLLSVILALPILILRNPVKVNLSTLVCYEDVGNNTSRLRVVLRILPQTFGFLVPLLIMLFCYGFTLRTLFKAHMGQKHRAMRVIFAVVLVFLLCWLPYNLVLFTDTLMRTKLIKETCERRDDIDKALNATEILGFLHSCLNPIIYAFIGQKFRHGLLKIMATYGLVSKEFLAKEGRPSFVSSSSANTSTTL

T2: Human CXCR2 (Homo sapiens, UniProt P25025)
T2 sequence (P25025 1-360): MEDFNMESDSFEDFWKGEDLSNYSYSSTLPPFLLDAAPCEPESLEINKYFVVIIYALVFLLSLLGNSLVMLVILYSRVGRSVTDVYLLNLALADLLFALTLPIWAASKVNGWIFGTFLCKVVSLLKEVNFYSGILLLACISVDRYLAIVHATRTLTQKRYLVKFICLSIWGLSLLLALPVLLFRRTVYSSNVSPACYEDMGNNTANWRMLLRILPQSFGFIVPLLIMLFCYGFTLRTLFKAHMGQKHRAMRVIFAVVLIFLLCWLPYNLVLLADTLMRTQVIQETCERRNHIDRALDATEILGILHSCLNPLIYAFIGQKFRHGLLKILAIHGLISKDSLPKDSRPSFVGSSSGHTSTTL


Assays:
Murine CXCR2 = target: T1, Murine CXCR2; assay: cELISA of hybridoma supernatants on cells transfected with murine CXCR2; format: binding; details: hybridoma supernatant; fluorescence units relative to positive control (100%)
Human CXCR2 [1] = target: T2, Human CXCR2; assay: cELISA of hybridoma supernatants on cells transfected with human CXCR2; format: binding; set-up: host or cells: Expi293F cells, vector pTT5; details: hybridoma supernatant; fluorescence units relative to positive control (100%)
Protocol: To generate hybridomas which produced monoclonal antibodies to human CXCR2, splenocytes and/or lymph node cells from animals with the highest anti-CXCR2 titres were isolated and fused to mouse myeloma cells (ATCC, CRL-1580). Cells were plated at approximately 1×10^5 cells/mL in flat bottom microtiter plates, followed by a two week incubation in selective medium (10% FCS and 1×HAT (Sigma)). Hybridomas were expanded by serial passage through four media changes in 96-well plates (96-well stages 1 to 4), then, where required, expanded into T25 and T75 flasks. […] Bound antibodies were detected using a goat anti-rat IgG-HRP (Southern Biotech, #3030-05) secondary antibody.
A panel of hybridomas was generated using lymph nodes and spleen cells from the transgenic rats engineered to express human variable region sequences. A cellular ELISA (cELISA) was used to detect human CXCR2 binding activity in supernatants taken during the expansion process for the hybridomas (Table 5). Hybridomas that retained expression of antibodies that bound CXCR2 after several passages were selected for DNA sequencing.

Human CXCR2 [2] = target: T2, Human CXCR2; assay: Tango CXCR2-bla U2OS cell-based β-arrestin recruitment assay; set-up: The beta-arrestin/TEV protease fusion and the beta-lactamase reporter are separate parts of the cell line; details: human agonist potency
Source text: Cells were thawed, propagated, cultured and frozen according to the manufacturer's directions.
Preparation of Tango™ CXCR2-bla U2OS cells for use in cell-based assays: The manufacturer's protocol was altered to make use of 96-well plates instead of 384-well plates. Briefly, dividing cells were harvested one day prior to use. Cells were harvested and resuspended in assay medium (100% FreeStyle™ Expression Medium; Life Technologies; Cat #12338-018) at a viable cell density of 312,500 cells/mL. 128 μL of cell suspension was added per well in 96-well black-walled, clear bottom tissue culture-treated plates. Cells were incubated for 16-20 hrs at 37° C. in an atmosphere of 5% CO2 prior to use in assays.
Tango™ assay procedure: Assays were set up and run as described in the manufacturer's protocol. For antagonist assays, agonists were used at concentrations in the EC50-EC80 range. Assays were read using a FlexStation® 3 (Molecular Devices) fluorescence plate reader configured with the parameters given in Table 4. The blue/green emission ratio for each well was calculated by dividing the blue emission values by the green emission values. All inhibition curves were fitted using a four-parameter dose-response using GraphPad Prism™ (Version 7.01).
The Human CXCR2 Tango™ cell line was used to assess the ability of antibody BKO-4A8-101c to inhibit β-arrestin recruitment to agonist-activated CXCR2. All human ELR+ chemokine CXCR2 ligands were tested in antagonist dose response assays using calculated EC50 values of agonist.
The commercially available reporter cell line Tango™ CXCR2-bla U2OS (ThermoFisher Scientific) was used to assess the ability of the anti-CXCR2 antibodies to inhibit β-arrestin recruitment to agonist-activated CXCR2. Agonists were provided at their assay EC50 concentration for antagonist assays.

Human CXCR2 [3] = target: T2, Human CXCR2; assay: Calcium flux assay, HTS002C-CHEMISCREEN human CXCR2 calcium-optimized cell line; format: cell-based; details: human agonist potency
Protocol: One of the signaling pathways downstream of CXCR2 activation that has a role in cell chemotaxis is characterized by calcium mobilization (flux). The ability of BKO-4A8-101c to inhibit human CXCR2 ligand-induced calcium flux was tested in the commercially available HTS002C-CHEMISCREEN™ human CXCR2 chemokine receptor calcium-optimized cell line.
The Fluo-4 NW calcium assay kit (Life Technologies) was used according to manufacturer's protocol for in-cell measurement of calcium mobilization, which was read using a FLIPR Tetra high-throughput cellular screening system (Molecular Devices). The peak response minus the basal response from each well was used to determine inhibition dose response curves fitting a four-parameter logistic equation and IC50 values.

Human CXCR2 [4] = target: T2, Human CXCR2; assay: Flow cytometry binding assay, Expi293F cells transiently transfected with human CXCR2; set-up: host or cells: Expi293F cells, vector pTT5; details: combinatorial variants with light chain c
Protocol: For each 10 mL transfection, lipid-DNA complexes were prepared by diluting 10 μg of plasmid DNA in Opti-MEM™ I Reduced Serum Medium (Cat. no. 31985-062) to a total volume of 1.0 mL. 54 μL of ExpiFectamine™ 293 Reagent was diluted in Opti-MEM™ I medium to a total volume of 1.0 mL. Transfections were carried out according to manufacturer's instructions. The cells were incubated in a 37° C. incubator with a humidified atmosphere of 8% CO2 in air on an orbital shaker rotating at 200 rpm. Approximately 18-24 hours post-transfection, the cell viability was evaluated and transfected cells harvested for use.
Harvested cells were resuspended in FACS buffer (1×PBS+0.5% (w/v) bovine serum albumin (BSA)+2 mM EDTA pH 7.2). Approximately 2×10^5 cells were added per well in a 96-well round-bottomed plate. Cells were pelleted by centrifugation at 400 g for 5 mins at 4° C. and supernatants discarded. 25 μL of each test antibody or control antibody was added to the cells and incubated for 30 minutes at 4° C. Cells were washed twice in 100 μL FACS buffer followed by centrifugation at 400 g for 5 mins at 4° C.
For detection, 50 μL of secondary antibody (Table 2) was added to relevant samples. Commercially available antibodies that bound to transfected CXCR family members were used as positive controls to ensure that the cells were expressing the receptors. Cells were washed twice in 200 μL of FACS buffer followed by centrifugation at 400 g for 5 mins at 4° C. Before sample acquisition, cells were resuspended in 100 μL of FACS buffer. Samples were acquired using the high throughput sampler on a FACSCanto™ II cytometer (Beckton-Dickinson).
Binding of BKO-4A8 and variants thereof was detected by incubation of fluorochrome-conjugate anti-human IgG light chain lambda antibody. The binding activity of antibodies tested, quantified as mean fluorescent intensity, was independent of the antibody Fc region as illustrated in FIG. 9.

Murine CXCR2 % Positive (Murine CXCR2) | Human CXCR2 % Positive (Human CXCR2 [1]) | EC50 (Human CXCR2 [2]) | EC50 (Human CXCR2 [3]) | CXCR2 binding activity versus parental BKO-4A8 (Human CXCR2 [4]) | Molecule
6% | 124% |  |  |  | BKO-8C4: VH SEQ ID NO: 39, VL SEQ ID NO: 40 (antibody, V domains shown, BKO_8C4_VH; BKO_8C4_VL) VH: QLQLQESGPGLVKPSETLSLTCTVSGGSIRTSSYYWGWIRQPPGKGLEYIGSIYYSGTTYYNPSLKSRVTMSVDTSKNQFSLKLSSVTAADTAVYYCARHGRVREVPPFDYWGQGTLVTVSS VL: SSELTQDPAVSVALGQTVRITCQGDSLRYYYASWYQQKPGQAPVLVIYDENSRPSGIPDRFSGSSSGNTASLRITGTQAEDEADYYCNSRDTSGNHWAFGGGTKLTVL
6% | 38% |  |  |  | BKO-1A1: VH SEQ ID NO: 1, VL SEQ ID NO: 2 (antibody, V domains shown, BKO_1A1_VH; BKO_1A1_VL) VH: QLQLQESGPGLVKPSETLSLTCTVSGGSIRTSSYYWGWIRQPPGKGLEYIGSIYYSGTTYYNPSLKSRVTMSVDTSKNQFSLKMSSVTAADSAVYYCARHGRVREVPPFDYWGQGTLVTVSS VL: SSELTQDPAVSVALGQTVRITCQGDSLRYYYASWYQQKPGQAPVLVIYDENSRPSGIPDRFSGSSSGNTASLSITGTQAEDEADYYCNSRDTSGNHWAFGGGTKLTVL
8% | 109% |  |  |  | BKO-5E8: VH SEQ ID NO: 21, VL SEQ ID NO: 22 (antibody, V domains shown, BKO_5E8_H5_C05_VH; BKO_5E8_L3_C03_VL) VH: EVQLLESGGGLVQPGGSLRLSCAASGFTFSSYAMSWVRQAPGRGLEWVSAIRGSGAGTYYADSMKGRFTISRDNSKDTLYLLMNSLRAEDTAVYYCSKLEAVSGTGKYFQHWGQGTLVTVSS VL: SYELTQPPSVSVSPGQTANITCSGDTLGDKFACWYQQKPGQSPVLVIYQDTKRPSGIPERFSGSKSGITATLTISGTQAMDEADFYCQAWNSRGVVFGGGTRLTVL
 |  | 39.6 nM | 7.14 nM |  | CXCL7: human agonist chemokine, R&D Systems 393-NP (protein) AELRCMCIKTTSGIHPKNIQSLEVIGKGTHCNQVEVIATLKDGRKICLDPDAPRIKKIVQKKLAGDESAD
4% | 73% |  |  |  | BKO-7C11: VH SEQ ID NO: 31, VL SEQ ID NO: 32 (antibody, V domains shown, BKO_7C11_H6_B06_VH; BKO_7C11_G01_VL) VH: QVQLQQWGAGLLKPSETLSLTCAVYGGSFSGYYWSWIRQPPGKGLEWIGEINHSRNTNYNPSLKSRVTISVDTSKNQFSLKLSSVTAADTAVYYCARGEVRGVFTLYWYFDVWGRGTLVTVSS VL: SSELTQGPAVSVALGQTVRITCQGNSLRFYYASWYQQRPGQAPILVIYDKNNRPSGIPDRFSGSSSGNTASLTITGAQAEDEADYYCNSRDSSGYYMIFGGGTKLTVL
 |  |  |  | reduced | 102c: VH SEQ ID NO: 162, VL SEQ ID NO: 110 (antibody, V domains shown, 4A8 VH Variant 102 M34Q_A40P_N56S_R75K_M96E; 4A8 VL variant c D41G_N52S_N94S) VH: EVQLLESGGGLVQPGGSLRLSCAASGFTFSSSTQSWVRQPPGKGLEWVSAISGRGRSTYYADSVKGRFTISRDNSKNTLYLQMNSLRAEDTAVYYCAIQEGYWGQGILVTVSS VL: QSALTQPPSASGSPGQSVTISCIGTSSDVGGYNYVSWYQQHPGKAPKLMIYEVSKRPSGVPDRFSGSKSGNTASLTVSGLQAEDEADYYCSSYAGSNNFGVFGGGTKLTVL
22% | 101% |  |  |  | BKO-5G11: VH SEQ ID NO: 23, VL SEQ ID NO: 24 (antibody, V domains shown, BKO_5G11_VH; BKO_5G11_VL) VH: EVQLLESGGGLVQPGGSLRLSCAVSGFTFSNYAMTWVRQAPGKGLEWVSAISGRGSRTYYADSVKGRFTISRDTSKNTLYLQMNSLRAEDTAVYYCAKMDYWGQGTLVTVSS VL: QSALTQPPSASGSPGQSVTISCTGTSSDVGGYNYVSWYQQHPGKAPKLMIFEVSKRPSGVPDRFSGSKSGNTASLTVSGLQAEDEADYYCSSYAGSNNFGVFGGGTKLTVL
6% | 95% |  |  |  | BKO-8B6: VH SEQ ID NO: 37, VL SEQ ID NO: 38 (antibody, V domains shown, BKO_8B6_VH; BKO_8B6_VL) VH: EVQLLESGGGLVQPGGSLRLSCAASGFTFSSNAMSWVRQAPGKGLEWVSAISNSGRSTYYADSVKGRFTISRDSSKNTLYLLMNSLRAEDSAVYYCAIKLGYWGQGSLVTVSS VL: QSALTQPPSASGSPGQSVTISCTGTSSDVGGYNYVSWYQQHPGKAPKLMMYEVSKRPSGVPDRFSGSKSGNTASLTVSGLQAEDEADYYCSSYAGSDNFGVFGGGTRLTVL

From patent US12018084B2, “Anti-CXCR2 antibodies and uses thereof” (Cephalon LLC, priority 2018, dated 2024)
